The Kd is the equilibrium constant for the complex coming apart. Low values mean tighter binding, high ones weaker binding. As usually defined, the EC50 is the concentration giving half of the maximal effect.

This note sets out measurements from patent US20120251444A1 (RAPTOR PHARMACEUTICALS, published 2012).

Read-outs that look alike come from different tables or passages of the source.

Experiment [1] addresses T1, RAP d3 (human, UniProt P30533 234-357).
T1 construct: also called recombinant RAP d3
T1 sequence: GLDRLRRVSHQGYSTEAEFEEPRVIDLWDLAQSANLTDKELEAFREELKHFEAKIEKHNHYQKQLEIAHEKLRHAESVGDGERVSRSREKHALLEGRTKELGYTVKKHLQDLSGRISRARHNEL
Put plainly: solid-phase binding (OD), single-site non-linear regression.

In experiment [2] the target is T1, RAP d3. Put plainly: binding titration on LRP2 CR89, absorbance against nM of ligand.
The target of experiment [3] is T2, recombinant human LRP1 cluster II (R&D Systems, amino acids 786-1165, with C-terminal Fc tag) (human, UniProt Q07954 786-1165).
T2 construct: range 786-1165; Bought from R&D Systems; coated on plates; also called LRP1-C2; not shown: C-terminal Fc tag of the bought protein
T2 sequence (looked up): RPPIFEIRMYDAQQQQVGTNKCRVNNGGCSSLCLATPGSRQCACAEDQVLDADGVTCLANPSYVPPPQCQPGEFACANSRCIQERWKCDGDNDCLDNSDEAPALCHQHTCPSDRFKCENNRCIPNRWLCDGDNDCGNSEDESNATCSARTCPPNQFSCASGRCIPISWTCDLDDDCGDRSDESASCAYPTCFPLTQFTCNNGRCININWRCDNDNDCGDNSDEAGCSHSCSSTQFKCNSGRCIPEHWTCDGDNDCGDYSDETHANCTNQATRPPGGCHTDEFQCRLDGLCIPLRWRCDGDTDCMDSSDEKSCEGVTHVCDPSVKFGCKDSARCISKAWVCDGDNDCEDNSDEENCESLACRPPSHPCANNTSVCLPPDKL
Put plainly: solid phase competition, inhibitor preincubated with immobilized LRP1-C2, then 2 nM RAP d3. The method, then: (§1) Control wells contained no added inhibitor. Wells were washed with TBS supplemented with 5 mM CaCl₂ and 0.05% Tween-20. […] Excess HRP conjugate was removed and wells washed. Color was developed using TMB reagents (BioRad, Hercules, Calif.).

Experiment [4] addresses T2, recombinant human LRP1 cluster II (R&D …). Put plainly: solid phase competition, inhibition of 2 nM RAP d3 binding to immobilized LRP1-C2. The method, then: as §1
Experiment [5] has the same target. Put plainly: solid phase competition, EC50 against that of the mRAPc monomer. The method, then:
as §1

The target is the same in experiment [6]. Described as above. The procedure: as §1
This is another data set of the same source.

B1: LRP1 CR3-5 (receptor)
chain: not shown
notes: domain: CR3-5; also called LRP1 CR domains
In the case of B1, binding with RAP d3 [1] was characterised by a dissociation constant (Kd) of 16 nM.

B2: LRP2 CR89 (receptor)
chain: not shown
notes: domain: CR89
Take B2: the binding result with RAP d3 [2] is given as “no binding (tested: 100 nM)”.

B3: mature RAP (full-length receptor-associated protein) (ligand)
chain: YSREKNQPKPSPKRESGEEFRMEKLNQLWEKAQRLHLPPVRLAELHADLKIQERDELAWKKLKLDGLDEDGEKEARLIRNLNVILAKYGLDGKKDARQVTSNSLSGTQEDGLDDPRLEKLWHKAKTSGKFSGEELDKLWREFLHHKEKVHEYNVLLETLSRTEEIHENVISPSDLSDIKGSVLHSRHTELKEKLRSINQGLDRLRRVSHQGYSTEAEFEEPRVIDLWDLAQSANLTDKELEAFREELKHFEAKIEKHNHYQKQLEIAHEKLRHAESVGDGERVSRSREKHALLEGRTKELGYTVKKHLQDLSGRISRARHNEL
notes: also called full-length RAP
As for B3, the EC50 in experiment [3] was found to be 0.5 nM; in experiment [4], 0.8 nM. The relative to monomer amounted to 40 fold in experiment [5] and 36 fold in experiment [6].
